This assay has as its target T1, FGFR4-Fc (Homo sapiens, UniProt P22455).
T1 construct: Fc
T1 sequence (P22455 22-369 limits assumed): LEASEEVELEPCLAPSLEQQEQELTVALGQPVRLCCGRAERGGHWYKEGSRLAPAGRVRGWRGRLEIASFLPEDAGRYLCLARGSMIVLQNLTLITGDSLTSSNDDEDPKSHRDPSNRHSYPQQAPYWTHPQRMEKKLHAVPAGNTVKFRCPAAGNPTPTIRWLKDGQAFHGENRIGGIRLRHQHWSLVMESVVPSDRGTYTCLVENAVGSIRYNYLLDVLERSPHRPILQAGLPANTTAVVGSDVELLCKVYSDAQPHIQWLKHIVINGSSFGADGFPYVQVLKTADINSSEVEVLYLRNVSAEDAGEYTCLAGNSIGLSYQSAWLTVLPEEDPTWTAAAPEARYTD
The experiment in a line: SPR affinity of VHH (monomer) for FGFR4-Fc. It is filed as binding. To be noted: same manner as Example 5. As for the experimental part:
The binding activity of VHH Clone #1 or VHH Clone #2 immobilized on Series S Sensor Chip CAP (manufactured by Cytiva) with respect to FGFR1-Fc was measured using Biacore (registered trademark) T200 (manufactured by Cytiva). Measurement was performed by CAP Single-cycle Kinetics. The temperature was set to 25° C. As a running buffer, 10 mM HEPES (pH 7.4) (Cytiva) including HBS-EP+(150 mM NaCl, 0.5 mM EDTA, and 0.05% surfactant P20) was used. The measurement order for each run is as follows.
2) Measurement of binding activity: The flow rate was set to 30 μL/mL, and VHH Clone #1 or VHH Clone #2 each diluted to 1.85 nM, 5.56 nM, 16.67 nM, or 50 nM, using a running buffer, was allowed to have an association time set to 120 seconds for binding and a dissociation time set to 600 seconds for interaction.
3) Regeneration of sensor chip surface: The flow rate was set to 10 μL/mL, a solution in which Reaneration stock 1 and Regeneration stock 2 (manufactured by Cytiva) were mixed at the ratio of 3:1 was added thereto for 120 seconds to extract the immobilized VHH. Next, analysis was performed with a 1:1 binding model using Biacore T200 Evaluation (software version 2.0, manufactured by Cytiva), and the binding activity was calculated.
The binding activity of VHH Clone #1 to FGFR2-Fc, FGFR3-Fc, or FGFR4-Fc was measured in the same manner as in Example 5.

B1: VHH Clone #1: alpaca-derived VHH single-domain antibody (monomer) binding FGFR1, amino acid sequence SEQ ID NO: 17 (protein)
VHH: QLQLVESGGGSVQAGGSLRLSCAASRSLSRFNVWTWYRQAPVKQRELVASITKSGDTNYAESVKGRFIISRDDDKNTVYLQMNNLKSEDTGIYYCAGSYYSGSYLYPSPGGFSVWGQGTQVTVSS
modifications: VHH_Clone_#1
Take B1: the ka stood at 2.37e+06 M⁻¹ s⁻¹ and the kd was determined as 0.0527 s⁻¹.

Values taken from patent US20240279618A1, “RECEPTOR TYROSINE KINASE AGONIST, COMPOSITION FOR CELL CULTURE MEDIUM, AND […] MAINTENANCE COMPOSITION” (SEKISUI CHEMICAL CO., LTD., priority 2021, published 2024).
